Assay results from IntAct's records for PubMed 18154663.

B1: RalBP1-associated Eps domain-containing protein 2 (Homo sapiens), Q8NFH8 (parent)
chain: MEAAAAAAAAAAAAAAAGGGCGSGPPPLLLSEGEQQCYSELFARCAGAAGGGPGSGPPEAARVAPGTATAAAGPVADLFRASQLPAETLHQITELCGAKRVGYFGPTQFYIALKLIAAAQSGLPVRIESIKCELPLPRFMMSKNDGEIRFGNPAELHGTKVQIPYLTTEKNSFKRMDDEDKQQETQSPTMSPLASPPSSPPHYQRVPLSHGYSKLRSSAEQMHPAPYEARQPLVQPEGSSSGGPGTKPLRHQASLIRSFSVERELQDNSSYPDEPWRITEEQREYYVNQFRSLQPDPSSFISGSVAKNFFTKSKLSIPELSYIWELSDADCDGALTLPEFCAAFHLIVARKNGYPLPEGLPPTLQPEYLQAAFPKPKWDCQLFDSYSESLPANQQPRDLNRMEKTSVKDMADLPVPNQDVTSDDKQALKSTINEALPKDVSEDPATPKDSNSLKARPRSRSYSSTSIEEAMKRGEDPPTPPPRPQKTHSRASSLDLNKVFQPSVPATKSGLLPPPPALPPRPCPSQSEQVSEAELLPQLSRAPSQAAESSPAKKDVLYSQPPSKPIRRKFRPENQATENQEPSTAASGPASAATMKPHPTVQKQSSKQKKAIQTAIRKNKEANAVLARLNSELQQQLKEVHQERIALENQLEQLRPVTVL
partner: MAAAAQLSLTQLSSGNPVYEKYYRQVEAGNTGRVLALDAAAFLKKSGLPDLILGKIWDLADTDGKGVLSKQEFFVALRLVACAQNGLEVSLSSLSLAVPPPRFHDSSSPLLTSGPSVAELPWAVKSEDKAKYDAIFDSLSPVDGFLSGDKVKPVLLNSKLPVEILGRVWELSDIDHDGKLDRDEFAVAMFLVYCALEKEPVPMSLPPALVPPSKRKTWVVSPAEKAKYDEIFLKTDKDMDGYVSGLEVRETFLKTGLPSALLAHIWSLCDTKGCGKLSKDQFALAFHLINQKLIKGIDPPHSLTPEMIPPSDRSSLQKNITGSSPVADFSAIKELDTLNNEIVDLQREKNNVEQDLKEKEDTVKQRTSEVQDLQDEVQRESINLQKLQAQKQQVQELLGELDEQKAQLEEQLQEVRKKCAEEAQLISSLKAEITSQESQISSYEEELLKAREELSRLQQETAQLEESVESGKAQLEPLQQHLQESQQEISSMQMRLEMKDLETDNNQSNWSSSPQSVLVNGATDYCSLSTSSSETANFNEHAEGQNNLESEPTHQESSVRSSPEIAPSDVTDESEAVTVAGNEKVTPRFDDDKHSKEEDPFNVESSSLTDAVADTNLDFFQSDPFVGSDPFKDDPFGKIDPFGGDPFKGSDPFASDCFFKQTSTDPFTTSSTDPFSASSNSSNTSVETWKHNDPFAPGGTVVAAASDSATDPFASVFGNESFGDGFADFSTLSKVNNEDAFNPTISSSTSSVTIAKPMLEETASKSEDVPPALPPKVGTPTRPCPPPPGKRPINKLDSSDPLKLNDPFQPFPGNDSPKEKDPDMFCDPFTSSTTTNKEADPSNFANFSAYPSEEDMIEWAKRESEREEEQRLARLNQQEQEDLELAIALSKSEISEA

Experiments:
Conditions in all cases: with eps15_mouse Eps15, P42567
[1] = variants of: B1
[2] = variants of: B1; remark: listed apart in the source
[3] = variants of: B1; remark: listed apart in the source
[4] = variants of: B1; remark: listed apart in the source

| effect of a mutation on the interaction [1] | effect of a mutation on the interaction [2] | effect of a mutation on the interaction [3] | effect of a mutation on the interaction [4] | Variant |
| --- | --- | --- | --- | --- |
| decreasing interaction | disrupting interaction |  |  | K312A |
|  | disrupting interaction | decreasing interaction |  | K351A |
|  |  |  | decreasing interaction | W324A |
